Experimental data as given in the supplement of paper PMC9112550, “Optimization of the antimicrobial peptide Bac7 by deep mutational scanning” (BMC Biology, 2022).

System: Escherichia coli TOP10
Test: shrunken log2 fold change of peptide-encoding DNA abundance (4.5 h post-induction vs induction); higher = less antimicrobial activity (less host growth inhibition)
Details: time post-induction: 4.5 h; library: site-saturation at positions 5, 18, 19, 20
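Further: peptides expressed intracellularly from a pBAD plasmid library in pooled LB shake-flask culture, induced with 0.3% L-arabinose, DNA abundance read by NGS, three biological replicates, DESeq2 with apeglm shrinkage.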

| Sequence | shrunken log2 fold change |
| --- | --- |
| RRIRKRPPRLPRPRPRPPWQPRP | 0.236 |
| RRIRMRPPRLPRPRPRPWGHPRP | 0.0533 |
| RRIRSRPPRLPRPRPRPERSPRP | 0.206 |
| RRIRRRPPRLPRPRPRPKSCPRP | 0.0766 |
| RRIRPRPPRLPRPRPRPNRQPRP | -0.0342 |
| RRIRFRPPRLPRPRPRPFLWPRP | -0.0874 |
| RRIRQRPPRLPRPRPRPNNRPRP | -0.686 |
| RRIRFRPPRLPRPRPRPNVIPRP | -0.173 |
| RRIRGRPPRLPRPRPRPHYKPRP | -0.0643 |
| RRIRVRPPRLPRPRPRPGAEPRP | 0.271 |
| RRIRERPPRLPRPRPRPHQPPRP | 0.202 |
| RRIRCRPPRLPRPRPRPPSNPRP | -0.416 |
| RRIRGRPPRLPRPRPRPNSCPRP | 0.0941 |
| RRIRTRPPRLPRPRPRPTQDPRP | 0.837 |
| RRIRKRPPRLPRPRPRPSQQPRP | 0.312 |
| RRIRARPPRLPRPRPRPSIMPRP | -0.178 |
| RRIRGRPPRLPRPRPRPNGAPRP | 0.827 |
| RRIRNRPPRLPRPRPRPMTHPRP | -0.405 |
| RRIRFRPPRLPRPRPRPNHTPRP | -0.626 |
| RRIRNRPPRLPRPRPRPVYPPRP | -0.341 |
| RRIRFRPPRLPRPRPRPPGLPRP | 0.573 |
| RRIRSRPPRLPRPRPRPGGVPRP | 0.326 |
| RRIRTRPPRLPRPRPRPPSIPRP | 0.114 |
| RRIRRRPPRLPRPRPRPFFAPRP | 0.98 |
| RRIRQRPPRLPRPRPRPSKPPRP | -0.231 |

| Sequence | shrunken log2 fold change |
| --- | --- |
| RRIRLRPPRLPRPRPRPFSHPRP | -0.262 |
| RRIRKRPPRLPRPRPRPPSAPRP | 0.798 |
| RRIRARPPRLPRPRPRPGEIPRP | 0.599 |
| RRIRPRPPRLPRPRPRPIITPRP | -0.587 |
| RRIRHRPPRLPRPRPRPVYGPRP | -0.528 |
| RRIRQRPPRLPRPRPRPHKAPRP | -0.0398 |
| RRIRVRPPRLPRPRPRPWRFPRP | -0.0846 |
| RRIRPRPPRLPRPRPRPPGHPRP | 0.371 |
| RRIRRRPPRLPRPRPRPIQPPRP | -0.0245 |
| RRIRGRPPRLPRPRPRPVDPPRP | 0.107 |
| RRIRQRPPRLPRPRPRPLPWPRP | 0.117 |
| RRIRNRPPRLPRPRPRPQGTPRP | -0.0148 |
| RRIRKRPPRLPRPRPRPWMGPRP | -0.0352 |
| RRIRGRPPRLPRPRPRPLAHPRP | 0.546 |
| RRIRNRPPRLPRPRPRPYNNPRP | -1.19 |
| RRIRNRPPRLPRPRPRPFWVPRP | 0.0863 |
| RRIRDRPPRLPRPRPRPGPKPRP | 0.386 |
| RRIRGRPPRLPRPRPRPENRPRP | 0.19 |
| RRIRKRPPRLPRPRPRPAFSPRP | -0.0331 |
| RRIRDRPPRLPRPRPRPGAAPRP | 1.09 |
| RRIRNRPPRLPRPRPRPQSWPRP | -0.0543 |
| RRIRHRPPRLPRPRPRPPDDPRP | 0.256 |
| RRIRIRPPRLPRPRPRPKIMPRP | -0.549 |
| RRIRMRPPRLPRPRPRPCWLPRP | -0.0281 |
| RRIRMRPPRLPRPRPRPKHFPRP | 0.176 |

| Sequence | shrunken log2 fold change |
| --- | --- |
| RRIRARPPRLPRPRPRPADFPRP | 0.119 |
| RRIRGRPPRLPRPRPRPNLVPRP | 0.0862 |
| RRIRSRPPRLPRPRPRPEMPPRP | 0.00153 |
| RRIRTRPPRLPRPRPRPQVHPRP | -0.221 |
| RRIRFRPPRLPRPRPRPYTCPRP | -0.22 |
| RRIRRRPPRLPRPRPRPTHHPRP | 0.8 |
| RRIRVRPPRLPRPRPRPWAFPRP | -0.189 |
| RRIRQRPPRLPRPRPRPNTDPRP | -0.166 |
| RRIRIRPPRLPRPRPRPSKEPRP | -0.202 |
| RRIRCRPPRLPRPRPRPMLHPRP | -0.378 |
| RRIRARPPRLPRPRPRPGTYPRP | -0.257 |
| RRIRERPPRLPRPRPRPADSPRP | -0.157 |
| RRIRLRPPRLPRPRPRPGVLPRP | 0.204 |
| RRIRKRPPRLPRPRPRPDVMPRP | -0.0462 |
| RRIRLRPPRLPRPRPRPCKFPRP | -0.463 |
| RRIRCRPPRLPRPRPRPNHEPRP | -0.15 |
| RRIRVRPPRLPRPRPRPHTYPRP | -0.154 |
| RRIRRRPPRLPRPRPRPEPCPRP | 0.388 |
| RRIRGRPPRLPRPRPRPGTAPRP | 2.14 |
| RRIRTRPPRLPRPRPRPYDVPRP | -0.153 |
| RRIRHRPPRLPRPRPRPFVQPRP | -0.14 |
| RRIRKRPPRLPRPRPRPGRNPRP | -0.105 |
| RRIRPRPPRLPRPRPRPHQFPRP | -0.0896 |
| RRIRYRPPRLPRPRPRPKCSPRP | -0.433 |
| RRIRLRPPRLPRPRPRPQRNPRP | -0.789 |

| Sequence | shrunken log2 fold change |
| --- | --- |
| RRIRYRPPRLPRPRPRPGMNPRP | -0.227 |
| RRIRMRPPRLPRPRPRPMQMPRP | 0.671 |
| RRIRYRPPRLPRPRPRPKPLPRP | 0.276 |
| RRIRCRPPRLPRPRPRPNLFPRP | -0.932 |
| RRIRYRPPRLPRPRPRPYVQPRP | -1.25 |
| RRIRCRPPRLPRPRPRPFYKPRP | 0.979 |
| RRIRKRPPRLPRPRPRPYSAPRP | -0.134 |
| RRIRYRPPRLPRPRPRPPFDPRP | -0.565 |
| RRIRTRPPRLPRPRPRPAAPPRP | 0.275 |
| RRIRKRPPRLPRPRPRPNVMPRP | -0.122 |
| RRIRNRPPRLPRPRPRPMDWPRP | -0.0484 |
| RRIRWRPPRLPRPRPRPNYMPRP | -0.385 |
| RRIRRRPPRLPRPRPRPEGCPRP | 0.863 |
| RRIRPRPPRLPRPRPRPPYSPRP | -0.181 |
| RRIRRRPPRLPRPRPRPDDGPRP | -0.147 |
| RRIRSRPPRLPRPRPRPHCGPRP | -0.0953 |
| RRIRLRPPRLPRPRPRPCTSPRP | -0.114 |
| RRIRSRPPRLPRPRPRPLKGPRP | 0.0623 |
| RRIRWRPPRLPRPRPRPKCEPRP | 0.359 |
| RRIRRRPPRLPRPRPRPNDKPRP | -0.178 |
| RRIRDRPPRLPRPRPRPEFKPRP | -0.0319 |
| RRIRYRPPRLPRPRPRPHTQPRP | -1.1 |
| RRIRRRPPRLPRPRPRPYTRPRP | 0.000194 |
| RRIRFRPPRLPRPRPRPTNLPRP | -0.291 |
| RRIRDRPPRLPRPRPRPSPSPRP | -0.018 |

| Sequence | shrunken log2 fold change |
| --- | --- |
| RRIRDRPPRLPRPRPRPPQAPRP | 0.268 |
| RRIRVRPPRLPRPRPRPMRMPRP | -0.00559 |
| RRIRSRPPRLPRPRPRPAVKPRP | -0.177 |
| RRIRRRPPRLPRPRPRPYVEPRP | -0.482 |
| RRIRVRPPRLPRPRPRPQQVPRP | -0.0278 |
| RRIRDRPPRLPRPRPRPWALPRP | -0.000578 |
| RRIRARPPRLPRPRPRPENEPRP | 0.868 |
| RRIRCRPPRLPRPRPRPCFPPRP | -0.321 |
| RRIRIRPPRLPRPRPRPTGIPRP | -0.0849 |
| RRIRPRPPRLPRPRPRPSQIPRP | -0.112 |
| RRIRWRPPRLPRPRPRPWNFPRP | -0.188 |
| RRIRLRPPRLPRPRPRPHMVPRP | -0.336 |
| RRIRFRPPRLPRPRPRPKMQPRP | -0.0373 |
| RRIRARPPRLPRPRPRPDFVPRP | 0.205 |
| RRIRYRPPRLPRPRPRPPFPPRP | -0.0826 |
| RRIRSRPPRLPRPRPRPLKNPRP | -0.347 |
| RRIRKRPPRLPRPRPRPDMIPRP | 0.013 |
| RRIRRRPPRLPRPRPRPMWIPRP | -0.137 |
| RRIRVRPPRLPRPRPRPFAHPRP | -0.176 |
| RRIRERPPRLPRPRPRPCGPPRP | -0.131 |
| RRIRCRPPRLPRPRPRPMMQPRP | 0.0143 |
| RRIRKRPPRLPRPRPRPALDPRP | 0.772 |
| RRIRCRPPRLPRPRPRPYPTPRP | -0.517 |
| RRIRLRPPRLPRPRPRPWMCPRP | -0.492 |
| RRIRLRPPRLPRPRPRPHNKPRP | -0.59 |

| Sequence | shrunken log2 fold change |
| --- | --- |
| RRIRERPPRLPRPRPRPLTTPRP | -0.395 |
| RRIRMRPPRLPRPRPRPGMWPRP | 0.292 |
| RRIRLRPPRLPRPRPRPQLDPRP | 0.0655 |
| RRIRFRPPRLPRPRPRPWQHPRP | -0.0848 |
| RRIRMRPPRLPRPRPRPLFQPRP | -0.279 |
| RRIRIRPPRLPRPRPRPRQFPRP | -0.112 |
| RRIRCRPPRLPRPRPRPCQEPRP | -0.108 |
| RRIRDRPPRLPRPRPRPGHIPRP | -0.0814 |
| RRIRWRPPRLPRPRPRPHFFPRP | -0.0221 |
| RRIRLRPPRLPRPRPRPKADPRP | -0.051 |
| RRIRDRPPRLPRPRPRPGCDPRP | 0.79 |
| RRIRGRPPRLPRPRPRPFDWPRP | 0.0459 |
| RRIRERPPRLPRPRPRPCEPPRP | 0.123 |
| RRIRMRPPRLPRPRPRPEFMPRP | 0.656 |
| RRIRIRPPRLPRPRPRPSILPRP | -0.878 |
| RRIRPRPPRLPRPRPRPSIHPRP | -0.974 |
| RRIRTRPPRLPRPRPRPGQYPRP | -0.286 |
| RRIRVRPPRLPRPRPRPCRMPRP | -0.0641 |
| RRIRGRPPRLPRPRPRPHFFPRP | 0.328 |
| RRIRPRPPRLPRPRPRPYQHPRP | -0.592 |
| RRIRLRPPRLPRPRPRPSVNPRP | -0.822 |
| RRIRWRPPRLPRPRPRPVDVPRP | -0.0135 |
| RRIRLRPPRLPRPRPRPKGTPRP | 0.0017 |
| RRIRFRPPRLPRPRPRPNWWPRP | -0.0248 |
| RRIRYRPPRLPRPRPRPDVPPRP | -0.0784 |
